The source of these data is patent US11034762 (CENTIVAX, dated 2021).

In assay [1] the target is SARS-CoV-2 Receptor Binding Domain (RBD) protein (SARS-CoV-2, UniProt P0DTC2 319-541).
For assay [2], the target named is T1, SARS-CoV-1 Receptor Binding Domain (RBD) protein (SARS-CoV-1, UniProt P59594 306-527).
T1 construct: also called SARS1
In words: SPR; clone listed as COV2 only at the 21st table, row 37, column 3. Background: In SPR one partner is held on a chip, and binding of the other changes the refractive index at the surface.

Assay [3] addresses T2, MERS Receptor Binding Domain (RBD) protein (MERS virus, UniProt K9N5Q8 367-606).
T2 construct: also called Middle East Respiratory Syndrome (MERS) virus
T2 sequence: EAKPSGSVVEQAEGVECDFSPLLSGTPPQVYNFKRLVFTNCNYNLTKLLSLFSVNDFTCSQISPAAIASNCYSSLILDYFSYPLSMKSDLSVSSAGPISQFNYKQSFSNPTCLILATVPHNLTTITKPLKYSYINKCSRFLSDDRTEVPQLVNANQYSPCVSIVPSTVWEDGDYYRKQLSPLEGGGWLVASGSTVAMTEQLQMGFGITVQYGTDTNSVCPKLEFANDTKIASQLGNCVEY
The description is as above.

In assay [4] the target is T1, SARS-CoV-1 Receptor Binding Domain …. In words: SPR; clone listed as COV2 only at the 21st table, row 52, column 3.
In assay [5] the target is T2, MERS Receptor Binding Domain (RBD) …. Described as above.
Assay [6] has as its target T1, SARS-CoV-1 Receptor Binding Domain …. The assay is described as follows: SPR; clone listed as COV2 only at the 21st table, row 45, column 3.
The target in assay [7] is T2, MERS Receptor Binding Domain (RBD) …. The description is as above.
In assay [8] the target is T1, SARS-CoV-1 Receptor Binding Domain …. The assay is described as follows: SPR; clone listed as COV2 only at the 21st table, row 43, column 3.
Assay [9] deals with T2, MERS Receptor Binding Domain (RBD) …. Described as above.
Assay [10] deals with T1, SARS-CoV-1 Receptor Binding Domain …. In words: SPR; clone listed as COV2 only at the 21st table, row 51, column 3.
The target in assay [11] is T2, MERS Receptor Binding Domain (RBD) …. Described as above.

Residue numbers refer to the chain shown, from its start.

B1: COVID19_P22_B12 (scFv, V domains shown)
VH: QVQLVQSGAEVKKPGSSVKVSCKASGGTLSSYAISWVRQAPGQGLEWMGIIYPGDSETRYSQKFQGRVTITADESTSTAYMELSSLRSEDTAVYYCAGGSGISTPRSVWGQGTLVTVSS
VL: DIVMTQSPDSLAVSLGERATINCKSSRILSYSPDNKNYLAWYQQKPGQPPKLLIYWASTRESGVPDRFSGSGSGTDFTLTISSLQAEDVAVYYCQQSYITPYTFGGGTKVEIKR
A word on the Kd: it is the free concentration of one partner at which half of the binding sites on the other are occupied at equilibrium, for simple one-to-one binding. A high value points to a looser complex. In general, koff refers to the rate constant with which the complex falls apart. Read a high koff as fast dissociation. Broadly, the kon is a measure of how fast the partners come together. In assay [1], B1 yielded a Kd of 4.24 nM, a koff of 0.00036 s⁻¹ and an on-rate (kon) of 85000 M⁻¹ s⁻¹. In assay [2], the binding result is on record as “no binding (tested: up to 300 nM)”. The binding result in assay [3] is given as “no binding (tested: up to 300 nM)”.

B2: COVID19_P22_C09 (scFv, V domains shown)
VH: QVQLVQSGAEVKKPGSSVKVSCKASGYNFTDYHIQWVRQAPGQGLEWVGMIIPRHGGTAYAQRFQGRVTITADESTSTAYMELSSLRSEDTAVYYCAGGSGLTTPMDVWGQGTLVTVSS
VL: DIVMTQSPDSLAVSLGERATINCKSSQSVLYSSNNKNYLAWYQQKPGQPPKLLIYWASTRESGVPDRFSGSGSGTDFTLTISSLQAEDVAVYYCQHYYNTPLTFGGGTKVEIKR
With B2, in assay [1], the Kd was 32.8 nM, the dissociation rate constant (koff) stood at 0.0083 s⁻¹ and the kon was found to be 250000 M⁻¹ s⁻¹. Besides, the binding result in assay [4] is listed as “no binding (tested: up to 300 nM)”. In addition, the binding result in [5] is “no binding (tested: up to 300 nM)”.

B3: COVID19_P09_D06 (scFv, V domains shown)
VH: QVQLVQSGAEVKKPGSSVKVSCKASGYGFITYWIGWVRQAPGQGLEWMGIIYPGDSETRYAQKFQGRVTITADESTSTAYMELSSLRSEDTAVYYCAGGSGIYVPMDVWGQGTLVTVSS
VL: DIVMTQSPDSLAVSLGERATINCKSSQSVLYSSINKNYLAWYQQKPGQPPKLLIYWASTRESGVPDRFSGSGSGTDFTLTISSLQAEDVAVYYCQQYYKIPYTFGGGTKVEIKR
Consider B3, for which, in [1], the Kd came to 16.4 nM, the off-rate constant (koff) came to 0.00538 s⁻¹ and the kon was determined as 328000 M⁻¹ s⁻¹. The binding result in [6] is on record as “no binding (tested: up to 300 nM)”. In assay [7], the binding result is given as “no binding (tested: up to 300 nM)”.

B4: COVID19_P22_B04 (scFv, V domains shown)
VH: B3 VH with S100E, Y103S, V104T
VL: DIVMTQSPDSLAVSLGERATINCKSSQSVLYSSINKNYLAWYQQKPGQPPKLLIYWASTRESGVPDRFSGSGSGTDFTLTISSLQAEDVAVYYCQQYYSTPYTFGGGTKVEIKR
Take B4: in [1], the Kd stood at 26.1 nM, the koff was 0.015 s⁻¹ and the on-rate (kon) is 570000 M⁻¹ s⁻¹. The binding result in assay [8] is “no binding (tested: up to 300 nM)”. Moreover, in assay [9], the binding result is “no binding (tested: up to 300 nM)”.

B5: COVID19_P21_H01 (scFv, V domains shown)
VH: B3 VH with I30S, I50W, Y52N, G54N, D55S, S56G, E57G, R59N, Y103S, V104T
VL: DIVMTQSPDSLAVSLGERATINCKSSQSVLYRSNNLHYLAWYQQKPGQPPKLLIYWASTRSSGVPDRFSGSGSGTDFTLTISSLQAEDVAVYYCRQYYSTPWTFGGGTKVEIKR
As for B5, in assay [1], the dissociation constant (Kd) stood at 1.38 nM, the off-rate constant (koff) is 0.00022 s⁻¹ and the association rate constant (kon) worked out at 160000 M⁻¹ s⁻¹. Besides, the binding result in assay [10] is “no binding (tested: up to 300 nM)”. For the same molecule, in assay [11], the binding result was “no binding (tested: up to 300 nM)”.
